According to paper PMC12123872:

Legend:
[1] = target: POLR2A fragment Ile1231-Lys1350 (UniProt P24928 1231-1350); assay: EMSA
RAD21 = target: T1, RAD21 (UniProt O60216 1-631); assay: EMSA
T1 sequence: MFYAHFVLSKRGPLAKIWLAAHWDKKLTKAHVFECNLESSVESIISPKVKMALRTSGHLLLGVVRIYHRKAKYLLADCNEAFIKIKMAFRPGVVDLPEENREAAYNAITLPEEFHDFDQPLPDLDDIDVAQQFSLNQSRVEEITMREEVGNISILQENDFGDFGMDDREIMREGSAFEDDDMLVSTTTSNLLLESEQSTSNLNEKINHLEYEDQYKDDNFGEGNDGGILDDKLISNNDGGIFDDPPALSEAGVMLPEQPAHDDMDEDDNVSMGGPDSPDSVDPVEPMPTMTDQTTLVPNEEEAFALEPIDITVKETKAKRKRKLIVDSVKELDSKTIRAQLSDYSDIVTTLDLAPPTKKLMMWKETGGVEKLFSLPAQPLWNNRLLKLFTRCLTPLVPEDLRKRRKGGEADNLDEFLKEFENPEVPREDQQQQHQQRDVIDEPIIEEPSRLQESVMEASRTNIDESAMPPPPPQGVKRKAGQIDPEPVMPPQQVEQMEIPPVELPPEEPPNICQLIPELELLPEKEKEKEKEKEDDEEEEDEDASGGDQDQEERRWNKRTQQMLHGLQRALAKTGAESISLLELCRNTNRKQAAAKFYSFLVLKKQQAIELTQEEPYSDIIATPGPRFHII

Chain of POLR2A fragment Ile1231-Lys1350 (P24928 1231-1350): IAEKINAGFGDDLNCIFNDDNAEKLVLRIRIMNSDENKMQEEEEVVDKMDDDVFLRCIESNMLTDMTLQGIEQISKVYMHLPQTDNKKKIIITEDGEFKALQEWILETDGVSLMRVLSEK

B1: rs1950834-G probe (dsDNA)
DNA 1: TCGGAGTTTGGCCTTCCGGCTCTCCAACTCAGATC
DNA 2: GATCTGAGTTGGAGAGCCGGAAGGCCAAACTCCGA
binding result [1]: binds | binding result (RAD21): binds
